Source: publication PMC2654182 (Biochemistry, 2008)

T1: BARD1 (423-777) (human, UniProt Q99728 423-777)
T1 sequence (looked up): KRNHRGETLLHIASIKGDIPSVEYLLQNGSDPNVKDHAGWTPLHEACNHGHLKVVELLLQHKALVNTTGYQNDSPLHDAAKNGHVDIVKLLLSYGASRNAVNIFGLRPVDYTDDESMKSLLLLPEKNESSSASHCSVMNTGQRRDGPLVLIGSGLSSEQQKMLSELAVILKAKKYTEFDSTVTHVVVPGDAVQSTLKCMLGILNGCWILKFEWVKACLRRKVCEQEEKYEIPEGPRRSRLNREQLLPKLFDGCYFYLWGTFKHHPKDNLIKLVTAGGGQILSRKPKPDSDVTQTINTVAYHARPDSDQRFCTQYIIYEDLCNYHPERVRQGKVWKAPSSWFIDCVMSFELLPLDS

B1: GST-CstF-50 (92-431) (domain or fragment, human, UniProt Q05048 92-431, looked up)
chain: MSPEASEYETCYVTSHKGPCRVATYSRDGQLIATGSADASIKILDTERMLAKSAMPIEVMMNETAQQNMENHPVIRTLYDHVDEVTCLAFHPTEQILASGSRDYTLKLFDYSKPSAKRAFKYIQEAEMLRSISFHPSGDFILVGTQHPTLRLYDINTFQCFVSCNPQDQHTDAICSVNYNSSANMYVTGSKDGCIKLWDGVSNRCITTFEKAHDGAEVCSAIFSKNSKYILSSGKDSVAKLWEISTGRTLVRYTGAGLSGRQVHRTQAVFNHTEDYVLLPDERTISLCCWDSRTAERRNLLSLGHNNIVRCIVHSPTNPGFMTCSDDFRARFWYRRSTTD

Assays:
BARD1 (423-777) = target: T1, BARD1 (423-777); experiment: pull-down
GST-CstF-50 (92-431) = target: B1; experiment: pull-down

binding result (BARD1 (423-777))	binding result (GST-CstF-50 (92-431))	Binder
binds	–	B1
–	binds	BARD1 (554-777) (domain or fragment, human, UniProt Q99728 554-777, looked up) ASHCSVMNTGQRRDGPLVLIGSGLSSEQQKMLSELAVILKAKKYTEFDSTVTHVVVPGDAVQSTLKCMLGILNGCWILKFEWVKACLRRKVCEQEEKYEIPEGPRRSRLNREQLLPKLFDGCYFYLWGTFKHHPKDNLIKLVTAGGGQILSRKPKPDSDVTQTINTVAYHARPDSDQRFCTQYIIYEDLCNYHPERVRQGKVWKAPSSWFIDCVMSFELLPLDS
